Laboratory results reported in US20040082509A1 (XIGEN S A, published 2004).

Target: recombinant JNK1α1 (UniProt P45983-2 1-384)
Assay: cell-based or functional assay

recombinant JNK1α1, sequence (P45983 other isoform, or with tags, fused parts or gaps limits assumed): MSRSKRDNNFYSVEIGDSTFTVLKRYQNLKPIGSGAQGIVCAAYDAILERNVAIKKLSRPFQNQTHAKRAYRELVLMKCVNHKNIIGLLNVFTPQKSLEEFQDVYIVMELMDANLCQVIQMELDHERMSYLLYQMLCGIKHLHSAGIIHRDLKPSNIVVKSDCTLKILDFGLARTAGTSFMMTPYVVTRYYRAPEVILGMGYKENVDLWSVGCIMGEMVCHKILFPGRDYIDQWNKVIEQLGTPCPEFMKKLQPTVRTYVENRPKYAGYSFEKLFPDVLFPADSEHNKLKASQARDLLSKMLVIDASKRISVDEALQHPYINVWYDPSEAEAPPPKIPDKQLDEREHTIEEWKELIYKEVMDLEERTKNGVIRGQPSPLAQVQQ

B1: L-JBD20 peptide (20 amino acid minimal JNK-inhibitory sequence of JIP-IB1) (peptide)
peptide: RPKRPTTLNLFPQVPRSQDT
~1000 nM: IC50, phosphorylation of the JNK target ATF2 | IC50, phosphorylation of the JNK target IRS-1 | IC50, phosphorylation of the JNK target MADD | IC50, phosphorylation of the JNK target bcl-xl
